Test results: patent US20250152729A1 (CANCER RESEARCH TECHNOLOGY, published 2025)

Tests used:
[1] = biological target: T1, recombinant human SEMA4A AviHis10, biotinylated (human, UniProt Q9H3S1 33-683, biotin on the Avi tag (BirA)); experiment: BLI (OctetRED), biotinylated SEMA4A on streptavidin tip, IgG as analyte, 1:1 model; KD(observed) IgG; human SEMA4A; IgG, not Fab
T1 construct: The text says amino acids 33-683 of Q9H3S1 with C-terminal Avi tag and His10 tag; also called avi-SEMA4A-His10
T1 sequence: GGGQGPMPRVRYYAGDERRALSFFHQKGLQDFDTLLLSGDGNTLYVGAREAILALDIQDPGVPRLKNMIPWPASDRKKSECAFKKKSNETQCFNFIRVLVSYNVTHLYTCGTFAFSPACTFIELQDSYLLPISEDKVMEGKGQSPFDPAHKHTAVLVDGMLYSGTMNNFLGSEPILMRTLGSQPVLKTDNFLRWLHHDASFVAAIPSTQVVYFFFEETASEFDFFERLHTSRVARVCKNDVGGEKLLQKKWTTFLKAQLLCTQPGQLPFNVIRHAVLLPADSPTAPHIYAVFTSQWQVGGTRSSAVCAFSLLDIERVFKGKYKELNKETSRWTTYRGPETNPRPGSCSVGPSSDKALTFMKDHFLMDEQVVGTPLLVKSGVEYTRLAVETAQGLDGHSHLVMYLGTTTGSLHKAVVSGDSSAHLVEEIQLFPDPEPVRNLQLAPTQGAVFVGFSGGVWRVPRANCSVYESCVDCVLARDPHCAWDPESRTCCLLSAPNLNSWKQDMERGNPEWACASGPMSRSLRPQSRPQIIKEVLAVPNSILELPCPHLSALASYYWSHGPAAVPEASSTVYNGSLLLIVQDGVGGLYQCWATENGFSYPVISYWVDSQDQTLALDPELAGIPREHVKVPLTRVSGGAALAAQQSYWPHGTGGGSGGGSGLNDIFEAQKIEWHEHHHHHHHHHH
Procedure: An Octet Kinetics buffer (PBS containing 0.01% (v/v) BSA and 0.002% (v/v) Tween20) is typically used as the diluent buffer for the analyte samples and as the flow buffer during the dissociation phase. The experimental data is recorded as shift in interference pattern (nm) over time, which is directly proportional to the optical thickness at the biosensor tip, which in turn is an approximate measure of the mass of analyte bound. The proprietary Octet Data Analysis software package can then be used to process data and fit binding models to the data sets. Returned association (ka, M-1 s-1) and dissociation (kd, s-1) rate constants allow calculation of dissociation (KD, M) affinity constants.
The affinity of binding between the analytes (humanised and phage display derived IgGs as human Alya IgG1s and Fabs) and human SEMA4A and cynomolgus SEMA4A, was estimated using assays in which the biotinylated SEMA4A antigen was captured on a streptavidin sensor tip. A fresh sensor tip was used for each measurement and no regeneration was used. A series of dilutions of the lead Fabs and human Alya IgG1s (3.25-240 nM) were individually placed in contact with the ligand surface for a sufficient amount of time to observe sensorgrams that could be fitted to an appropriate binding model with confidence (typically 5 minutes), followed by an appropriate length of dissociation time (typically 10 minutes). […]

[2] = biological target: T2, cynomolgus SEMA4A expressed on expi293 cells (UniProt ID G7NV79) (cynomolgus, UniProt Q9H3S1 33-761 (human entry)); experiment: Mirrorball direct binding, dilution series on expi293 cells transiently transfected with cynomolgus SEMA4A, anti-human Alexa Fluor 647
T2 construct: Transient transfection in expi293 cells; also called cyno SEMA4A
T2 chain: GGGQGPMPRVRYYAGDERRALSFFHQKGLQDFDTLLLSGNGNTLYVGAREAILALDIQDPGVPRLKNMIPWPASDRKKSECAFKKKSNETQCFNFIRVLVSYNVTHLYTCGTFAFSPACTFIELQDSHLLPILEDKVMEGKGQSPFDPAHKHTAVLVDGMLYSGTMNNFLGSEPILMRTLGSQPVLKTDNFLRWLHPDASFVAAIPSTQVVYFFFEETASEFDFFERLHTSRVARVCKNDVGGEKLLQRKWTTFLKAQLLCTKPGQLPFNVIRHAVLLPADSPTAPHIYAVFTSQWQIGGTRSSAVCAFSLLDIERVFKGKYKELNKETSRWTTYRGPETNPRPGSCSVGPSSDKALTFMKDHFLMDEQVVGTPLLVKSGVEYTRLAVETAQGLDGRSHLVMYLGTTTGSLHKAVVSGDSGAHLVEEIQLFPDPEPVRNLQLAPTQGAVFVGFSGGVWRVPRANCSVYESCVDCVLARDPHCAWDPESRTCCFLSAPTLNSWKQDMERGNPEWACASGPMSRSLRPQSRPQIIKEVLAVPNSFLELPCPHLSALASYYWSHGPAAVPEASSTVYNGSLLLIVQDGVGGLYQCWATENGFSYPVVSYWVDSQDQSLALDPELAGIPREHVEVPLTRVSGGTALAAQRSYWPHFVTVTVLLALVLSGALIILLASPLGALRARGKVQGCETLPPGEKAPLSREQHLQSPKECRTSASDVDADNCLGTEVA
Excerpt: Hits from the primary screening were re-formatted into the human Alya IgG1 vector and re-expressed and purified as described in section 4.1. In addition, a single clone was identified that contained an Asparagine deamidation motif (Asn Gly) within its VHCDR2. This potential sequence liability was de-risked by synthesising de novo two clonal variant VH genes (Asn Ala and Gln Gly) and cloning these sequences into the human Alya IgG1 expression vector. To determine the specificity profile of each purified human Alya IgG1, a dilution series was tested for binding to human SEMA4A, mouse SEMA4A, cyno SEMA4A, human SEMA4B and mock transfected cells (transient transfections set up in expi 293 cells.) The five assays employed methods described in section 2.3, using the appropriate cells and substituting the un-purified scFv periplasmic preparation with the recombinant human Alya IgG1 dilution series. Data was analysed as Count x median mean intensity (x FLU).

B1: mouse 5E3 expressed as human IgG1 Alya (antibody, V domains shown)
VH: QVQLQQPGAELVMPGASVKMSCKASGYTFTDYWMHWVKQRPGQGLEWIGAIDTSDSYTSYNQKFKGKATLTVDESSSTAYMQLSSLTSEDSAVYYCARDYGNFYYYAMDYWGQGTSVTVSS
VL: QAVVTQESALTTSPGETVTLTCRSSTGAVTTSNYANWVQEKPDHLFTGLIGGTNNRAPGVPARFSGSLIGDKAALTITGAQTEDEAIYFCALWYSNHWVFGGGTKLTVL
notes: Mouse variable domains on human IgG1 Alya constant (pEU1.22; 239iCys and S442C, EU numbering); purified, unconjugated; also called 5E3 IgG1 Alya
[1]
  Kd: ≤ 1 nM
[2]
  binding result: binds
